Test results: the nanobody polyreactivity screen of Harvey et al. (2022)

Assay: yeast display, Sf9 membrane polyspecificity reagent, FACS + sequencing; frameworks hold sequencing errors
In short: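 Genes from sorted yeast were amplified by colony PCR, read by MiSeq 2 × 250 sequencing and filtered on CDR length. These cells carried a synthetic nanobody library in Saccharomyces cerevisiae BJ5465 and were sorted by FACS into low and high (top ~1%) gates on anti-HA and streptavidin fluorescence. Polyreactivity is labelled according to the gate of origin.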

Sequence | polyreactivity (PSR sort gate)
QVQLVESGGGLVQVGGSLRLSCAASGSIFAINAMGWYRQAPGKERELVAAIRRRDGNTYYADSVKGRFTISRDNAKNTVYLQMNSLKPEDTAVYYCNTYSRRTSVIAYRYNYWGQGTQVTVSS | high polyreactivity
QVQLVESGGGLVQVGGSLRLSCAASGSIFVENAMGWYRQAPGKERELVAAITSGGSTNYADSVKGRFTISRDNAKNTVYLQMNSLKPEDTAVYYCNADENYGYYTHFGYWGQGTQVTVSS | low polyreactivity
QVQLVESGGGSVQAGGSLRFSCADSGFTFRKNAMGWYRQAPGKERELVAAISVSGGRTYYADSVKGRFTISRDNAKNTFYLQMNSLKPEETAVYYCAARRYVLVHKDDYWGQGTQVTVSS | high polyreactivity
QVQLVESGGGSVQAGGSLRLSCAASGRTFVRYAMGWYRQAPGKERELVAAITWSGGSTYYADSVKGRFTISRDNAKNTVYLQMNSLKPEDTAVFDCAAYPVQWGSLYDYWGQGTQVTVSS | high polyreactivity
QVQLVESGGGVDQAGGSLRLSCAASGSIFDLNARGGYRQAPGTERELVASIRDSGGRTYYADSVKGRFTISRDNAKNTVYLQMNSLKPEDTALYYCAAKPRRPGRGYWGQGTQVTVSS | high polyreactivity
QVQLVESGGGVVQAGGRLRLSCAASGFTFGSNDMGWYRQAPGKETELVAAIDGSGDTYYADSVKGRFTISRDNAKNTVDLQMNSLKPEDTAVYYCAADVIYWFSGEYDYWGQGTQVTVSS | low polyreactivity
QVQLVESGGGVVQAGGSLRFSCAASGRTFVVNAMGWYREAPGKERELVAAITRRGGITYYADSVKGRFTISRDNAKNSVYLQMNSLTPEDTAVYYCAADRSYYPDTRTTYGYNYWGQGTQVTVSS | low polyreactivity
QVQLVESGGGVVQAGGSLRISGAASGSIFPFNAMVWYRQAPGKERELVAAIRRSGGSTYYADSVQGRFTISRYNAKNTVDLQMNSLKPEATAVYYCATDPEWPLPAYYYWGQGTQVTVSS | low polyreactivity
QVQLVESGGGVVQAGGSLRLSCAASGFIFFINDMGWDRQAPGKERELVAAISWSGGSTYYADSVKGRFTISRDNAKNTVYLQMNSLIPEDTAVYYCNTDVPTAQYDYWGQGTQVTVSS | low polyreactivity
QVQLVESGGGVVQAGGSLRLSCAASGFIFGYYATGWYRQAPGKERELVDAFTRSGGSTRYADSVKGRFTISRDNAKNTVYLHMNSLKPEDSAVYYCNAYAPRQLYGYDYWGQGTQVTVSS | high polyreactivity
QVQLVESGGGVVQAGGSLRLSCAASGFTFWRYAMGWSRQAPGKDRELVAVITWSGTRTYYADSVKGRFTLSRDTAKITVYVQMNSLNPDAPAVYYCAAYITDVAGRAYDYWGQGTQVTVSS | high polyreactivity
QVQLVESGGGVVQAGGSLRLSCAASGITFSYYTMGWSRQAPGKERELVAAINWTGGDTYYADSVKGRFTISRDNAKNTVYLQMNSLNPEDTAVYYCNADYPYFYRFTAEYDYWGQGPQVTVSS | low polyreactivity
QVQLVESGGGVVQAGGSLRLSCAASGRICVRYAMGWYRQAPGKERELVAAISTRGGSTYYADSVKGRFTISRDNAKYTVYFQMNSLKPEDTAVYYCAARGVGPQPGYQRFNYWGQGTQVTVSS | high polyreactivity
QVQLVESGGGVVQAGGSLRLSCAASGRIFDIYAMGWYRQAPGKARELVAAITRGGSTYADSVKGRFTISRDNAKYTVYLQMNSLKPEVTAVYYCAASLYSYRSPYTFYYWGQGTQVTVSS | high polyreactivity
QVQLVESGGGVVQAGGSLRLSCAASGRIFHRYTMGWYRQARGKERELVAVISGLGGSTYYADSVKGRFTISRDNAKNTVYLQMNSLKPEDTAVYYCNRVGKYWSSDDSWGQGTQVTVSS | high polyreactivity
QVQLVESGGGVVQAGGSLRLSCAASGRIFRYTMGWYRQAPGKETELVADITRHGGSTYYADSVKGRFTISRDNAKNTVYLQMNSLKPEDTAVYYCAADHLSYRRRYEYWGQGTQVTVSS | low polyreactivity
QVQLVESGGGVVQAGGSLRLSCAASGRIFVSYAMGWYRQAPGKERELVASISGRGGSTYYADSVKGRFTISRDNAKNTVELQMNSLKPEDTAVYYCNKVARTRRITTYDYWGQGTQVTVSS | high polyreactivity
QVQLVESGGGVVQAGGSLRLSCAASGRIFVVYVMGWYRQAPGKEREFVAAITWGGGNTYYADSVKGRFTISRDNAKNTVYLQMNSLKPEDTAVYYCAAADGDDTTFRYDYWGQGTQVTVSS | low polyreactivity
QVQLVESGGGVVQAGGSLRLSCAASGRISRGNAMGWYRPAPGKEREFVAAISWSGDGTYYADSVKGRFTISRDNAKYTVYLQMNSLNPEDTAVYYCNTAVKVERDYWGQGTQVTVSS | low polyreactivity
QVQLVESGGGVVQAGGSLRLSCAASGRNFVYNAMGLYRQAPGKERELVAAIYSGGRTYYADSVKGRFTISRDNAKNTVYFKMYSLKPEDTAVYYCAARWYVLPTQTRPYYGYYYWGQGTQVTVSS | high polyreactivity
QVQLVESGGGVVQAGGSLRLSCAASGRNFYSYAMGLYTQAPGKERELVAAISKRGTSTYYADSVKGRFTISRDNAKNTVYLQMNSLKPEDTAVYYCAAVHWRYQYSLRYDYWGQGTQVTVSS | high polyreactivity
QVQLVESGGGVVQAGGSLRLSCAASGRTFKKYAMGWYRQAPGKEREFVARITYSAGSTYYADSVKGRFTISRDNAKNSVYLQMNSLKPEDTAVYYCASRFASSGPRWYSRHGEYDYWGQGTQVTVSS | low polyreactivity

Sequence | polyreactivity (PSR sort gate)
QVQLVESGGGVVQAGGSLRLSCAASGRTFPLYAMGWYRQAPGKERELVAAIRTGGSTNYADSVKGRFTISRDNAKNTVYLQMNSLKPEDTAVYYCAAVQRTDRSAHYSWGQGTQVTVSS | low polyreactivity
QVQLVESGGGVVQAGGSLRLSCAASGRTFRPYAMGWYRQAPGKERELVAAIDSSGTSTYYADSVKGRFTISRDNAKNSVYLQMNSLKPEDTAVYYCAKAWPDHWYSRYDYWGQGTQVTVSS | low polyreactivity
QVQLVESGGGVVQAGGSLRLSCAASGSIFNGYAMGWYRQAPGNEWELVAAISGNGGRTYYADSVKGRFTFSRDYAKNTVYLQMNSLKPEETADYYCNKVSGYYVDYWGQGSQVTVSS | high polyreactivity
QVQLVESGGGVVQAGGSLRLSCAASGSIFNRYAMGWYRQAPGKERELVAAISTHTGTTYYADSVKGRFTISRDNAKNTVYLQMNSLKPEDTAVYYCNAATYGGRYYYWGQGTQVTVSS | high polyreactivity
QVQLVESGGGVVQAGGSLRLSCAASGSIFQSYAMGWYRQAPGKERELVAAISYSGDGPFYADSVKGRFTISRDNAKKTVYLQMNSLKPEDTAVYYCAASSTGYGGSTYYYWGQGTQVTVSS | low polyreactivity
QVQLVESGGGVVQAGGSLRLSCAASGSIIWWYAMGWYRQAPGKERELVARMNKRSGSTYYADSVKGRFTISRDNAKNTVYLLRNSLKPEDTAVYYCAATWRSSGIAFFYWGQGTQVTLSS | high polyreactivity
QVQLVESGGGVVQAGGSLRLSCAASGSTCSWYVMGWYRQAPGKERELVASISRSGGSTYYADSVKGRFTISRDNAKNTVYLQMNSLKPEDTAVYYCAARQAGYSGRKLYYWAQGTQVTVSS | low polyreactivity
QVQLVESGGGVVQAGGSLRLSCAASGSTFDVYAMGWYRQAPGKERELVAAITSGGTTNYADSVKGRFTNSRDNAKNTVYLQMNSLKPEDTAVYYCAADSPWGGGYFVLYNYWGQGTQVTVSS | low polyreactivity
QVQLVESGGGVVQAGGSLRLSCAASGSTFGINCYGMYRQAPGKERELVAGISVSGGSTYYADSVKGRFTISRDNAKNTVYLKMNSLKPEDSAVYYCNRDTTVFLIYSYGYWGQGTQVTVSS | low polyreactivity
QVQLVESGGGVVQAGGSLRLSCAASGSTISPYAMGWYRPAPGKERELVAAISSGGSTSYADSVKGRFTISRDNAKNTVYLQMNSLKPEDTAVYYCHASSPGEVPVYDYDYWGQGTQVTVSS | low polyreactivity
QVQLVESGGGVVQAGGSLRLSCAASGSTLAGYAMGWYRPAPGKERELVAAIDWTGGSTTYADSVKGRFTISRDYAKNTVYLQMNCLKPDDTAVYSCNVVLGVNGDYWGQGCQVTVSS | low polyreactivity
QVQLVESGGGVVQAGGSLRLSCAASVSIFDDYAMGWYRQAPGKERELVASISRTGRTYYADSVKGRFTISRDNAKNTVYLQMNSLKPEDTAVYYCAATRYAPYRRYYYWGQGTQVTVSS | high polyreactivity
QVQLVESGGGVVQAGGSLRLSCAGSGRTFGPYAMGWYRQAPGKERELVAAIRYIDDSTFYADSVKGRFTISRDKAKNTVYLQMNSLKPEDTAVYYCAAQRRVVGRHGLSLIRYDYWGQGTQVTVTS | low polyreactivity
QVQLVESGGGVVQAGGSLRLTCAASGFTFSYNAMGWYRQAPGKERQLVAAISYSGGSTYYADSVKGRFTISRDTAKNTVYLQMNSLIPEHTAVYYCAAYSYYNYPNRGVYRGYYYWGQGTQGTVSS | high polyreactivity
QVQLVESGGGVVQARGSLRLSCAASGRIFYGYAMGWYRQAPGKERELVAAITRSSSTYYADSVKGRFTISRDNAKNTVYLQMNSLKPEDTAVYYCAAASRRSGASSWYDYWGQGTQVTVSS | high polyreactivity
QVQLVESGGGVVQARGSLRLSCAASGSPFWYHDMGWYRQAPGKERELVASISWSGGDTYYADSVKGRFTISRDNAKNTVYLQMNSLKTVDTAVYYCAAATLVSFWLDYWGEGTQVTVSS | low polyreactivity
QVQLVESGGPLVQAGGSLRLSCAASGRTIRYYTMGWYRQAPGKEREFVAAITSTGGTYYADSVKGRFTSSRDNAKNTVYLQRTSLKQEDTGVYYCAATFIQFVVNVQLYDYDYWGQGTQVTVSS | low polyreactivity
QVQLVESGGRIDQAGGRLRLSCAASGSIFDWYAMGWYRQAPGKERELVAAIDSSGSSTYYADSVKGRFTISRDNAKNTVYLQMNSLIPEDTAVYYCAADSDWIRYWFGSLYGSDYWGQGTQVSVSS | low polyreactivity
QVQLVESGGRIVQAGGSLRLSCAASGRTFPINAMGWYRQAPGKERELVASIRWTDGTTYYADSVKGRFTISRDNAKNTVYLQMNSLKPEDTAVYYCAADAEGSASKYDYWGQGTQVTVSS | low polyreactivity
QVQLVESGGRLVQAGCSLRLSCAASGFIFRLYAKGWYRQAPGKERELVAAISDDASTNYADSVKGRFTISRDNAKNTVYLQMNSLKPEDTAVYYCAAAVKRGYAQSFISDGYGYWGEGTQVTVSS | low polyreactivity
QVQLVESGGRLVQAGGRLRLSCAASGFIVYFNAMGWYIQAPGKERELVAAIRISGGSTYYADSVKGRFTISRDNAKNTVYLQMNSLKPEDTAVYYCATAPENYVSVGYDYWGQGTQVTVSS | low polyreactivity
